Data on ten molecules can be found in patent US20170022281A1 (AbbVie / Abbott, published 2017).

The target of one assay is T1, human PRLR on cells (human, UniProt P16471 25-622).
T1 sequence: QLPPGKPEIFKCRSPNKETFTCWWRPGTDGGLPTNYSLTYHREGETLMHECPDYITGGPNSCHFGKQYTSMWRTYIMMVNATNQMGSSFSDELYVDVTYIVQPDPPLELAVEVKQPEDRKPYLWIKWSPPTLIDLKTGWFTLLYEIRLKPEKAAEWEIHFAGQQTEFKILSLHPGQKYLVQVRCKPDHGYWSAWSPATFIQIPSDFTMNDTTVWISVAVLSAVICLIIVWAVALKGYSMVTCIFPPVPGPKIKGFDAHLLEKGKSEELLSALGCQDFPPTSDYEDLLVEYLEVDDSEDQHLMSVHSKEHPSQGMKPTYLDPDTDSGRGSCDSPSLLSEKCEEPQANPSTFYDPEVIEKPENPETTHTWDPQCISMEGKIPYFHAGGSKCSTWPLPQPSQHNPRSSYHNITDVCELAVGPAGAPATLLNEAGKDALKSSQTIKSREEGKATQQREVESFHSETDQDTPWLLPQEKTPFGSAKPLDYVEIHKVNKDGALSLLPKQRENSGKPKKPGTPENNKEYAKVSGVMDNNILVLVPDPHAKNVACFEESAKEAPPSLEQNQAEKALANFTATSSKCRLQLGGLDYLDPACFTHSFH
Briefly: cell-based or functional assay.

The target in assay [1] is T2, mouse PRLR on Baf3-mPRLR cells (mouse, UniProt Q08501 20-608).
T2 sequence (looked up): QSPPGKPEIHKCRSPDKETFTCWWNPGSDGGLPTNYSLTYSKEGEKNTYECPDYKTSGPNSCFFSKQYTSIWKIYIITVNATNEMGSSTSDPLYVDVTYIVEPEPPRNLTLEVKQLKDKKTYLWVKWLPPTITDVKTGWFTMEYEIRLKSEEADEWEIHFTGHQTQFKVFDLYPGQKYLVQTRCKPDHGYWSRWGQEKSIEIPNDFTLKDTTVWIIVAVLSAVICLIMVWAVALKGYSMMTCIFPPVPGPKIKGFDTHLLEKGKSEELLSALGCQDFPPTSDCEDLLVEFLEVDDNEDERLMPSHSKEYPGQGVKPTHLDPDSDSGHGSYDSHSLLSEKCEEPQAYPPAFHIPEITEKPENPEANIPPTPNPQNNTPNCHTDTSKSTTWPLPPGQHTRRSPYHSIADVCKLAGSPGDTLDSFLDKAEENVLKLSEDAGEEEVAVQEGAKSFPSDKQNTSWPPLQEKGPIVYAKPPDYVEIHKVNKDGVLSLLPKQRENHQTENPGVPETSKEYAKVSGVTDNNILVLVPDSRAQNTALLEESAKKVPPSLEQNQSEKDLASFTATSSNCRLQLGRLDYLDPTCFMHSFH
Briefly: cell-based or functional assay.

For assay [2], the target named is T3, human PRLR (Biacore antigen) (human, UniProt P16471 25-234, limits assumed).
T3 construct: The construct injected over captured antibody is not described (a soluble form is likely); also called huPRLR
T3 sequence: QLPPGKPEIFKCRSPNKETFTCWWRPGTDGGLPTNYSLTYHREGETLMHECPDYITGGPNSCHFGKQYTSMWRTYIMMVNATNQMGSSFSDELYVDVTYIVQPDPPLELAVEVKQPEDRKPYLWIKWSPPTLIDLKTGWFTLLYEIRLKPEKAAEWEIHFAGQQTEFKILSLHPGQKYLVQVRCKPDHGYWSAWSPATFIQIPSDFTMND
Briefly: SPR simultaneous binding; PRLR held by surface mAb LFA102. The method, then:
(§1) Running buffer was HBS-EP+ (10 mM Hepes, pH7.4, 150 mM NaCl, 3 mM EDTA, 0.05% surfactant). Assay was performed at 12° C. using Biacore T200 and CM5 sensor chips with anti-human IgG (Pierce) amine-coupled in all 4 flow cells to ˜2000 RU.
(§2) Separate test mAbs were captured in flowcells 2, 3 & 4 (flowcell 1 was reference, no test mAb). All 4 flowcells were then blocked by injection with isotype control mAb at 50 ug/ml. All 4 flowcells were then injected with antigen or buffer only (buffer only is for double referencing, done for each mAb pair individually). All 4 flowcells were then injected with 2nd test mAb at 10 ug/ml. All 4 flowcells were then regenerated with glycine, pH1.5.

In assay [3] the target is T3, human PRLR (Biacore antigen). In words: SPR simultaneous binding; PRLR held by surface mAb chAb6. The procedure:
as §1, §2

Assay [4] has the same target. In words: SPR simultaneous binding; PRLR held by surface mAb Ab40. The method, then: as §1, §2
Assay [5] shares this target. Briefly: SPR simultaneous binding; PRLR held by surface mAb chAb7. The procedure: as §1, §2
The target is the same in assay [6]. Briefly: SPR simultaneous binding; PRLR held by surface mAb chAb8. The method, then: as §1, §2

B1: Ab6 (antibody, V domains shown)
VH: QVQLQQPGAELVMPGSSVKLSCKASGYTFTTYWMHWVKQRPGQGLEWIGEIDPSDSYSNYNQKFKDKATLTVDKSSSTAYMQLSSLTSEDSAVYYCARNGGLGPAWFSYWGQGTLVTVSA
VL: DIVMTQSQKFMSTTVGDRVSITCKASQYVGTAVAWYQQKPGQSPKLLIYSASNRYTGVPDRFTDSGSGTDFTLTISNLQSEDLADYFCQQYSSYPWTFGGGTKLEIK
notes: murine monoclonal, isotype G1; also called murine Ab6
Regarding B1, in the assay with human PRLR on cells, the “Baf3-hPRLR proliferation IC50” value stood at 0.26 µg/mL and the “T47D pPRLR ELISA IC50” value was determined as 0.039 µg/mL. Moreover, the “Baf3-mPRLR proliferation IC50” value in assay [1] is greater than 30 µg/mL.

B2: chAb6 (antibody, human IgG1, kappa, V domains shown)
VH: QVQLQQPGAELVMPGSSVKLSCKASGYTFTTYWMHWVKQRPGQGLEWIGEIDPSDSYSNYNQKFKDKATLTVDKSSSTAYMQLSSLTSEDSAVYYCARNGGLGPAWFSYWGQGTLVTVSA
VL: DIVMTQSQKFMSTTVGDRVSITCKASQYVGTAVAWYQQKPGQSPKLLIYSASNRYTGVPDRFTDSGSGTDFTLTISNLQSEDLADYFCQQYSSYPWTFGGGTKLEIKT
notes: chimeric, murine variable and human G1/kappa constant regions
As to B2, the “Baf3-hPRLR proliferation IC50” value with human PRLR on cells stood at 0.28 µg/mL. Moreover, the “solution mAb binding, % of PRLR binding” value was 90% in assay [2]; -1% in assay [3]; -2% in assay [4]; 1% in assay [5]; 0% in assay [6].

B3: Ab5 (antibody, V domains shown)
VH: QVQLQQPGAELVRPGTSVKLSCKASGYTFTSFWMHWVKQRPGQGLEWIGVIDPSDTYTNYNQKFKGKATLTVDTSSSTAYMQLSSLTSEDSAVYYCARGDYSNWFTYWGQGTLVTVSA
VL: DVVMTQTPLSLPVSLGDQASISCRSSQRLVHSNGNTYLHWYLQKPGQSPKLLIYKVSNRFSGVPDRFSGSGSGTDFTLKISRVEAEDLGVYFCSQSTHVPWTFGGGTKLEIK
notes: murine monoclonal, isotype G2a; also called murine Ab5
As to B3, in the assay with human PRLR on cells, the “Baf3-hPRLR proliferation IC50” value was 0.24 µg/mL and the “T47D pPRLR ELISA IC50” value was 0.038 µg/mL. Also, the “Baf3-mPRLR proliferation IC50” value in assay [1] was 1.03 µg/mL.

B4: Ab11 (antibody, V domains shown)
VH: EVKLVESGGGLVQPGGSLKLSCAASGFTFSDYYMFWVRQTPEKSLEWVAYISNGGGSTYYPDTVKGRFTISRDNAKNTLYLQMSRLKSEDTAMYYCSRQLFYYGSRGAMGYWGQGTSVTVSS
VL: DVLMTQTPLSLPVSLGDQASISCRSSQSIVHSNGNTYLEWYLQKPGQSPKLLIYKVSNRFSGVPDRFSGSGSGTDFTLKISRVEAEDLGVYYCFQGSHVPFTFGSGTKLEIK
notes: murine monoclonal, isotype G1; also called murine Ab11
As to B4, in the assay with human PRLR on cells, the “Baf3-hPRLR proliferation IC50” value came out at 1.11 µg/mL and the “T47D pPRLR ELISA IC50” value was found to be 0.047 µg/mL. For the same molecule, in assay [1], the “Baf3-mPRLR proliferation IC50” value stood at 18.5 µg/mL.

B5: Ab7 (antibody, V domains shown)
VH: QVQLQQPGAELVMPGTSVKLSCKASGYTFTSYWIHWVKQRPGQGLEWIGEIDPSDSYTNYNQKFKGKATLTVDRSSSTAYMQLSSLTSEDSAVYYCGRSFFTNWFAYWGQGTLVTVSA
VL: DVVMTQTPLSLPVSLGDQASISCRSSQSLVHSNGNTYLHWYLQKPGQSPKLLIYKVSNRFSGVPDRFSGSGSGTDFTLKINRVEAEDLGVYFCSQSTHVPFTFGSGTKLEIK
notes: murine monoclonal, isotype G1; also called murine Ab7
Take B5: in the assay with human PRLR on cells, the “Baf3-hPRLR proliferation IC50” value stood at 0.28 µg/mL and the “T47D pPRLR ELISA IC50” value was found to be 0.08 µg/mL. Further, the “Baf3-mPRLR proliferation IC50” value in assay [1] came to 3.55 µg/mL.

B6: Ab13 (antibody, V domains shown)
VH: QVQLQQPGAELVRPGTSVKLSCKASGYTFTSFWMHWVKQRPGQGLEWIGVIDPSDSHTNYNQKFKGKATLTVNTSSSTAYMHLSSLTSEDSAVYYCARGDYSNWFTYWGQGTLVTVSA
VL: DVVMTQTPFSLPVSLGDQASISCRSSQSLVHSNGNTYLHWYLQKPGQSPKLLIYKVSNRFSGVPDRFSGSGSGTDFTLKISRVEAEDLELYFCSQSTHVPWTFGGGTKLEIK
notes: murine monoclonal, isotype G2a; also called murine Ab13
As to B6, in the assay with human PRLR on cells, the “Baf3-hPRLR proliferation IC50” value is 0.32 µg/mL and the “T47D pPRLR ELISA IC50” value was determined as 0.047 µg/mL. Further, the “Baf3-mPRLR proliferation IC50” value in assay [1] is 4.69 µg/mL.

B7: Ab12 (antibody, V domains shown)
VH: DVQLQESGPGLVKPSQSLSLTCTVTGYSITSDYAWNWIRQFPGNKLEWMGYIGYSGRTSFNPSLKSRISITRDTSKNQFFLQLNSVTTEDTATYYCARGGFAMDYWGQGTSVTVSS
VL: QIVLTQSPGIMSASPGEKVTMTCSASSSVTYMYWYQQKPRSSPKPWIYLTSNLASGVPARFSGSGSGTSYSLTISSMEAEDGATYYCQQWSSTPPLTFGGGTKLELN
notes: murine monoclonal, isotype G2a; reported as PRLR agonist; also called murine Ab12
As for B7, in the assay with human PRLR on cells, the “T47D pPRLR ELISA IC50” value was 0.538 µg/mL. The “Baf3-mPRLR proliferation IC50” value in assay [1] is greater than 30 µg/mL.

B8: Ab30 (antibody, human IgG1, kappa, V domains shown)
VH: EVQLVQSGAEVKKPGSSVKVSCKASGYTFTSFWMHWVRQAPGQGLEWIGVIDPSDTYTNYNQKFKGRATLTVDESSSTAYMELSSLRSEDTAVYYCARGDYSNWFTYWGQGTLVTVSS
VL: DVVMTQTPLSLSVTPGQPASISCRSSQRLVHSNGNTYLHWYLQKPGQSPQLLIYKVSNRFSGVPDRFSGSGSGTDFTLKISRVEAEDVGVYFCSQSTHVPWTFGGGTKVEIKR
notes: humanized from Ab5; G1; also called Ab2 HC.1a and Ab2 LC.1a
B8: the “Baf3-hPRLR proliferation IC50” value in the assay with human PRLR on cells worked out at 0.14 µg/mL. The “solution mAb binding, % of PRLR binding” value is 103% in assay [2]; -1% in assay [3]; -2% in assay [4]; 0% in assay [5]; 6% in assay [6].

B9: Ab10 (antibody, V domains shown)
VH: EVQLHQSGPELVKPGASVKISCKASGYTFTDYNMHWMKQSHGKSLEWIGYFYPYNGGTGYNQEFKNKATLTVDISSSTAYMELRRLTSEDSAVYYCARGGWGIYYAMDYWGQGTSVTVSS
VL: DIQMTQSPASLSASVGETVTITCRASENIYSYLTWYQQKQGKSPQLLVYNAKTLAEGVPSRFSGSGSGTQFSLKINSLQPEDFGSYHCQHHSVTPLTFGAGTKLELK
notes: murine monoclonal, isotype G2a; also called murine Ab10
As for B9, in the assay with human PRLR on cells, the “Baf3-hPRLR proliferation IC50” value is 3.14 µg/mL and the “T47D pPRLR ELISA IC50” value came out at 0.362 µg/mL. Further, the “Baf3-mPRLR proliferation IC50” value in assay [1] was greater than 30 µg/mL.

B10: chAb8 (antibody, human IgG1, kappa, V domains shown)
VH: EVQLQQSGPELVKPGASVKISCKASGYTFTDYNIHWVKQSHGKSLEWIGYIYPNNDGTGYNQKFKSKATLTVDNSSSTAYMEVRSLTSEDSAVYYCARGDGNYVGDMDYWGQGTSVTVSS
VL: DIQMTQSPASLSASVGETVTITCRASENIYSYLAWYQQKQGKPPQLLVYNAKTLAEGVPSRFSGGGSGTQFSLKINSLQPEDFGSYYCQHHYATPFTFGSGTKLEIKT
notes: as for B2
With B10, the “Baf3-hPRLR proliferation IC50” value with human PRLR on cells was determined as 0.3 µg/mL. For the same molecule, the “solution mAb binding, % of PRLR binding” value is -2% in assay [2]; -1% in assay [3]; -2% in assay [4]; 0% in assay [5]; -1% in assay [6].
